Data set [1] concerns the molecule itself. Briefly: negative-stain transmission electron microscopy; as a2 but with 2-5 mM ATP or ATPγS, with or without oligo(dT)30.
Data set [2] concerns the molecule itself. The data set can be described thus: SEC; Superdex200 HR 10/30, 20 mM Tris pH 7.5, 150 mM KCl, 1 mM DTT; about 40 ug RECQ1 loaded at 1 uM; alone, with oligo(dT)40 or oligo(dT)30 and/or 1 mM ATP or ATPγS in the elution buffer; also 100-500 mM salt and 0.1-35 uM protein.

B1: RECQ1(K119R) (human RECQ1, ATPase-deficient Walker A mutant) (enzyme, UniProt P46063 1-649, looked up)
chain: MASVSALTEELDSITSELHAVEIQIQELTERQQELIQKKKVLTKKIKQCLEDSDAGASNEYDSSPAAWNKEDFPWSGKVKDILQNVFKLEKFRPLQLETINVTMAGKEVFLVMPTGGGRSLCYQLPALCSDGFTLVICPLISLMEDQLMVLKQLGISATMLNASSSKEHVKWVHAEMVNKNSELKLIYVTPEKIAKSKMFMSRLEKAYEARRFTRIAVDEVHCCSQWGHDFRPDYKALGILKRQFPNASLIGLTATATNHVLTDAQKILCIEKCFTFTASFNRPNLYYEVRQKPSNTEDFIEDIVKLINGRYKGQSGIIYCFSQKDSEQVTVSLQNLGIHAGAYHANLEPEDKTTVHRKWSANEIQVVVATVAFGMGIDKPDVRFVIHHSMSKSMENYYQESGRAGRDDMKADCILYYGFGDIFRISSMVVMENVGQQKLYEMVSYCQNISKCRRVLMAQHFDEVWNSEACNKMCDNCCKDSAFERKNITEYCRDLIKILKQAEELNEKLTPLKLIDSWMGKGAAKLRVAGVVAPTLPREDLEKIIAHFLIQQYLKEDYSFTAYATISYLKIGPKANLLNNEAHAITMQVTKSTQNSFRAESSQTCHSEQGDKKMEEKNSGNFQKKAANMLQQSGSKNTGAKKRKIDDA
notes: human RECQ1 helicase (alias RECQL), the 649-amino acid variant, with K119R in ATPase motif I (Walker A box); also called RECQ1 K119R mutant; His6-K119R RECQ1 mutant; source: baculovirus/Sf9 cells, purified; not shown: His6, N-terminal, kept
As to B1, in data set [1], the binding result is on record as “binds”.

B2: untagged RECQ1 (utRECQ1; human RECQ1 helicase after removal of the N-terminal His6-tag) (enzyme, UniProt P46063 1-649, looked up)
chain: MASVSALTEELDSITSELHAVEIQIQELTERQQELIQKKKVLTKKIKQCLEDSDAGASNEYDSSPAAWNKEDFPWSGKVKDILQNVFKLEKFRPLQLETINVTMAGKEVFLVMPTGGGKSLCYQLPALCSDGFTLVICPLISLMEDQLMVLKQLGISATMLNASSSKEHVKWVHAEMVNKNSELKLIYVTPEKIAKSKMFMSRLEKAYEARRFTRIAVDEVHCCSQWGHDFRPDYKALGILKRQFPNASLIGLTATATNHVLTDAQKILCIEKCFTFTASFNRPNLYYEVRQKPSNTEDFIEDIVKLINGRYKGQSGIIYCFSQKDSEQVTVSLQNLGIHAGAYHANLEPEDKTTVHRKWSANEIQVVVATVAFGMGIDKPDVRFVIHHSMSKSMENYYQESGRAGRDDMKADCILYYGFGDIFRISSMVVMENVGQQKLYEMVSYCQNISKCRRVLMAQHFDEVWNSEACNKMCDNCCKDSAFERKNITEYCRDLIKILKQAEELNEKLTPLKLIDSWMGKGAAKLRVAGVVAPTLPREDLEKIIAHFLIQQYLKEDYSFTAYATISYLKIGPKANLLNNEAHAITMQVTKSTQNSFRAESSQTCHSEQGDKKMEEKNSGNFQKKAANMLQQSGSKNTGAKKRKIDDA
notes: human RECQ1 helicase (alias RECQL), the 649-amino acid variant; also called untagged wild-type RECQ1; source: baculovirus/Sf9 cells, purified; not shown: His6, N-terminal, cleaved
Turning to B2, the binding result in data set [2] is “binds”.

The values are drawn from PMC1769423, “Different Quaternary Structures of Human RECQ1 Are Associated with Its Dual Enzymatic Activity” (PLoS Biology, 2007).
